In paper PMC8097366, “The Dual Function of KDM5C in Both Gene Transcriptional Activation and Repression Promotes Breast Cancer Cell Growth and Tumorigenesis” (Advanced Science, 2021):

Target: T1, HA-tagged KDM5C, full length (UniProt P41229 1-1560)
T1 construct: KDM5C (JARID1C, SMCX), histone demethylase; the truncations run to residue 1560; KDM5C was sub-cloned into pCDH-3×Flag-3×HA-EF1-puro and into pLV-EF1-puro(cs2.0)-N-3×HA; also called HA-KDM5C; KDM5C FL; source: HEK293T, transfected, in lysate, nuclear extract or cytosolic extract; HEK293T, purified on anti-HA agarose
Experiment: co-IP; cytosolic extracts from transfected HEK293T cells; IP with anti-HA antibody; immunoblotting
Details: partners not purified

T1 sequence (P41229 whole entry, the tested form may be a part): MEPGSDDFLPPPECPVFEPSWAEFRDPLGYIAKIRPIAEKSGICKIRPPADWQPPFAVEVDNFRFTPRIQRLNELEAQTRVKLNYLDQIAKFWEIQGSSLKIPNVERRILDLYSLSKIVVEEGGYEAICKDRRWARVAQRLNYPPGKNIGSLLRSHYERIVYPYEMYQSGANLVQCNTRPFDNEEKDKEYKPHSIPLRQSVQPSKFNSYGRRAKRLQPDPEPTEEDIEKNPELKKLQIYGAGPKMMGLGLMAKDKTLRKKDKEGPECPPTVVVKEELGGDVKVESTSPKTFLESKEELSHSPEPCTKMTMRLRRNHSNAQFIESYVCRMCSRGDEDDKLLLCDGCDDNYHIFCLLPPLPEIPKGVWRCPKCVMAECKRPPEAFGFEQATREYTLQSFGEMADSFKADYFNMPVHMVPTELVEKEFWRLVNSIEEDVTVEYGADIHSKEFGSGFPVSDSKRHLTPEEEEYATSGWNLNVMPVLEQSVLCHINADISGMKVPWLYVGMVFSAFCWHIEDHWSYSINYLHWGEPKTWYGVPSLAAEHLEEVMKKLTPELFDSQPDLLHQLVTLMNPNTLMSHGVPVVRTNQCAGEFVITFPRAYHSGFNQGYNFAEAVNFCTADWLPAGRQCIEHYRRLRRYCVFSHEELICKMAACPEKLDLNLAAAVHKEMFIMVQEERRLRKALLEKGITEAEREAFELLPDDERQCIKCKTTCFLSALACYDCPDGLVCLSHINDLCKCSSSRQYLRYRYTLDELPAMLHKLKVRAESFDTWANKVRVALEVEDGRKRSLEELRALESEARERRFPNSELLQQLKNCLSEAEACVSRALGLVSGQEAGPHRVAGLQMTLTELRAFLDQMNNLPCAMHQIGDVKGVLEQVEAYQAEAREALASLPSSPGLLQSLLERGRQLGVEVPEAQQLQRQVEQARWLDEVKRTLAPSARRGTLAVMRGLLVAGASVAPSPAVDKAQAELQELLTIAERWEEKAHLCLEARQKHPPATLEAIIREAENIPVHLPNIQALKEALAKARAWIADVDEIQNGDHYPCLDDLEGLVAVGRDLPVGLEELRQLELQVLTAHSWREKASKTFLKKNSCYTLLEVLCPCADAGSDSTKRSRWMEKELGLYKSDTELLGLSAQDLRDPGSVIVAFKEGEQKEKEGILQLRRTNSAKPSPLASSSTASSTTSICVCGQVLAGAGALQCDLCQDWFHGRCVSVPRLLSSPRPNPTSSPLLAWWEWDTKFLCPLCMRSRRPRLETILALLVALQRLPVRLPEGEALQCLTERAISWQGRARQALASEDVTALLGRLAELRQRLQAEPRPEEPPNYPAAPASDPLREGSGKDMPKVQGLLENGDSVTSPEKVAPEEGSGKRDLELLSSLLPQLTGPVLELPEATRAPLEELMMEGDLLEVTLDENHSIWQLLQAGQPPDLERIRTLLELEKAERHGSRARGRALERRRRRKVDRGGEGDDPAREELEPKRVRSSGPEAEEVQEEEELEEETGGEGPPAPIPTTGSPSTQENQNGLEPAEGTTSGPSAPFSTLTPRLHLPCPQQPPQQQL

binding result: binds
B1: Flag-tagged TBK1 (pBOBI-3×Flag-hTBK1) (enzyme, human, UniProt Q9UHD2 1-729, looked up)
chain: MQSTSNHLWLLSDILGQGATANVFRGRHKKTGDLFAIKVFNNISFLRPVDVQMREFEVLKKLNHKNIVKLFAIEEETTTRHKVLIMEFCPCGSLYTVLEEPSNAYGLPESEFLIVLRDVVGGMNHLRENGIVHRDIKPGNIMRVIGEDGQSVYKLTDFGAARELEDDEQFVSLYGTEEYLHPDMYERAVLRKDHQKKYGATVDLWSIGVTFYHAATGSLPFRPFEGPRRNKEVMYKIITGKPSGAISGVQKAENGPIDWSGDMPVSCSLSRGLQVLLTPVLANILEADQEKCWGFDQFFAETSDILHRMVIHVFSLQQMTAHKIYIHSYNTATIFHELVYKQTKIISSNQELIYEGRRLVLEPGRLAQHFPKTTEENPIFVVSREPLNTIGLIYEKISLPKVHPRYDLDGDASMAKAITGVVCYACRIASTLLLYQELMRKGIRWLIELIKDDYNETVHKKTEVVITLDFCIRNIEKTVKVYEKLMKINLEAAELGEISDIHTKLLRLSSSQGTIETSLQDIDSRLSPGGSLADAWAHQEGTHPKDRNVEKLQVLLNCMTEIYYQFKKDKAERRLAYNEEQIHKFDKQKLYYHATKAMTHFTDECVKKYEAFLNKSEEWIRKMLHLRKQLLSLTNQCFDIEEEVSKYQEYTNELQETLPQKMFTASSGIKHTMTPIYPSSNTLVEMTLGMKKLKEEMEGVVKELAENNHILERFGSLTMDGGLRNVDCL
notes: TBK1, kinase; hTBK1 in the construct's name; The end of the tag and the species are read from the printed name of the construct; also called Flag-TBK1; source: HEK293T, transfected, in cytosolic extract; HEK293T, purified (eluted with 3×Flag peptide); not shown: 3×Flag, N-terminal, kept
